Target: T1, ERK3, amino acids 1-316, bait fused to the Gal4 DNA binding domain (Saccharomyces cerevisiae, UniProt P04386 1-147; Q16659 1-316)
T1 construct: range 1-147;range 1-316; Bait cDNA made by PCR from brain cDNA; also called ERK3 protein kinase
Assay: yeast two-hybrid
From the text: The new construct was selected directly in the yeast J693 for its ability to drive tryptophane synthesis (genotype of this strain: Mat α, ade2, his3, leu2, trp1, URA3::GAL1-lacZ LYS2::GAL1-HIS3 gal4del gal80del cyhR2). In these yeast cells, the bait is produced as a C-terminal fusion protein with the DNA binding domain of the transcription factor Gal4 (amino acids 1 to 147). A total human brain (person) cDNA library cloned into the yeast expression vector pACT2 was purchased from Clontech (human brain […] cDNA, cat. # HL4004AH), transformed into the yeast strain J692 (genotype of this strain: Mat a, ade2, his3, leu2, trp1, URA3::GAL1-lacZ LYS2::GAL1-HIS3 gal4del ga80del cyhR2), and selected for the ability to drive leucine synthesis. In these yeast cells, each cDNA is expressed as a fusion protein with the transcription activation domain of the transcription factor Gal4 (amino acids 768 to 881) and a 9 amino acid hemagglutinin epitope tag. J693 cells (Mat α type) expressing the bait were then mated with J692 cells ([…]) expressing proteins from the brain library. The resulting diploid yeast cells expressing proteins interacting with the bait protein were selected for the ability to synthesize tryptophan, leucine, histidine, and β-galactosidase. […]

- binding result: binds
B1: CDK9, amino acids 160-372, prey clone fused to the Gal4 activation domain (other, Saccharomyces cerevisiae;human, UniProt P04386 768-881, looked up, not shown: small tags and cut ends)
chain: ANFNQSGNIADSSLSFTFTNSSNGPNLITTQTNSQALSQPIASSNVHDNFMNNEITASKIDDGNNSKPLSPGWTDQTAYNAFGITTGMFNTTTMDDVYNYLFDDEDTPPNPKKEDGVLKLADFGLARAFSLAKNSQPNRYTNRVVTLWYRPPELLLGERDYGPPIDLWGAGCIMAEMWTRSPIMQGNTEQHQLALISQLCGSITPEVWPNVDNYELYEKLELVKGQKRKVKDRLKAYVRDPYALDLIDKLLVLDPAQRIDSDDALNHDFFWSDPMPSDLKGMLSTHLTSMFEYLAPPRRKGSQITQQSTNQSRNPATTNQTEFERVF
notes: Clone from the human brain cDNA library; also called PITARLE

From US20020104105A1 (MYRIAD GENETICS, published 2002)
